Converted amounts (≈) assume the structure as drawn. Numbered stars: 1 amine (or outer) side, 2 acyl side, 3 side chain; on linkers, the order of the positions; unused ones are H or OH. Bridge positions count the residues as written; N and C are the ends. Square brackets hold non-standard residues; d marks the D form. I, II: the chains in the order shown. X1 = CC(C)CCC[C@@H](C)[C@H]1CC[C@H]2[C@@H]3CC=C4C[C@@H](OC(=O)NCCOCCOCCOCCOCCC(=O)NCCOCCOCCOCCOCCOCCOCCOCCOCCOCCOCCOCCOCCOCCOCCOCCOCCOCCOCCOCCOCCOCCOCCOCCOCCOCCOCCOCCOCCC(=O)NC(CCC(=O)[*:1])(CCC(=O)[*:2])CCC(=O)[*:3])CC[C@]4(C)[C@H]3CC[C@]12C; PEG4 = NCCOCCOCCOCCOCCC(=O)O Where only a bound is given, the exact number is not on record here.

Data set [1] in a line: Solubility in standard aqueous buffers.
The nature of data set [2]: Rat pharmacokinetics of cholesterol conjugates, Calvert study (Table 4 protocol). The note with it: for bioavailability: male. As to the method:
For PIE12 monomer conjugates, in-life studies were performed by Invitek (Hayward, Calif.). Trimeric conjugate in-life studies were performed at Navigen (Salt Lake City, Utah). […] At each timepoint, plasma was obtained using lithium heparin. […] Plasma samples were stored at −80° C. and shipped prior to bioanalysis.
The column temperature was maintained at 70° C.
Fifty microliter aliquots of plasma for each time point was precipitated with 2.5 volumes of ice-cold acetonitrile containing 2% trifluoroacetic acid (v/v) and 370 nM CPT12 as internal standard. […] The column temperature was maintained at 70° C.
CPT31 in Rat Plasma-Calvert Study
Fifty microliter aliquots of plasma for each time point was precipitated with 5 volumes of ice-cold acetonitrile containing 1% formic acid (v/v). No internal standard was used. […] The column temperature was maintained at 40° C.
All of the PK data presented in Table 3 was generated using the same animal protocols and similar bioanalytical methods. Different animal protocols and improved bioanalytical methods were used to generate the data in Table 4 (all PK fitiing was performed using WinNonlin software).

A short description of data set [3]: Rodent pharmacokinetics of PIE12-trimer and conjugates (Table 3 protocol). Format: in vivo, Sprague Dawley rats. The note with it: rats. On the procedure: At each timepoint, plasma was obtained using lithium heparin.
Samples were spiked with an internal standard then precipitated with two volumes of 98% acetonitrile/2% Formic acid. Supernatants were analyzed by LC/MS/MS using an Agilent HPLC system (Waters X-Bridge BEH C18 column) paired to an AB Sciex API 3000 triple-quad mass spectrometer using MRM methods. Lipid conjugates required lower source temperatures (300° C. vs 500° C.) for improved reproducibility.

Data set [4] concerns JRFL (R5) luciferase reporter pseudovirions on HOS-CD4-CCR5. Kind of data set: Pseudovirion entry assay, JRFL. It is filed as cell-based, HIV-1. On the procedure:
Pseudovirion assays were performed as previously described (Welch et al., 2010, J. Virol. 84:11235-44; Welch et al., 2007, Proc. Natl. Acad. Sci. 104:16827-16833, each of which is incorporated herein by reference in its entirety). Briefly, a six-point dilution series of each inhibitor was generated in quadruplicate on HOS-CD4-CXCR4 (for HXB2) or HOS-CD4-CCR5 (for JRFL) monolayers in 96 well plates, after which HXB2 (X4) or JRFL (R5) luciferase reporter pseudovirions were added. After 2 days, cells were lysed using GloLysis buffer (Promega) and BrightGlo luciferase substrate (Promega) was added. Luminescence was read on a PolarStar Optima (BMG) plate reader and normalized to uninhibited controls. Inhibition curves were plotted and fit to a standard IC50 equation for normalized data [(1−c/(IC50+c)], weighting each point by its standard error using KaleidaGraph (Synergy Software). Reported IC50 values are the average of at least two independent quadruplicate assays.

A short description of data set [5]: Non-human primate pharmacokinetics. Format: in vivo, cynomolgus monkeys. As to the method:
Non-Human Primate Pharmacokinetics
In-life was performed by Calvert Laboratories (Scott Township, Pa.). […] Upon IV dosing, 1 ml blood samples were collected at 0.083, 0.167, 0.25, 0.5, 1, 2, 4, 8, 16 and 24 h post-dose into chilled tubes containing K2EDTA, mixed by inversion, and centrifuged (3000 rpm, 4° C., 15 min) to isolate plasma. Plasma was stored at −80° C. until bioanalysis.
Following a 13-day washout period, study animals were administered a single subcutaneous dose of CPT31 (10 mg/ml in 50 mM HEPES, pH 7.4) into the loose skin of the back between the shoulder blades at a dose of 3 mg/kg. Plasma samples were collected at pre-dose, 0.25, 0.5, 1, 2, 4, 8, 16, 24 and 48 hours post-dose. Collected blood samples were treated as described above. The pre-dose sample confirmed drug levels were below the lower limit of quantification (5.00 nM).
CPT31 in Monkey Plasma-Calvert Study
The internal standard, CPT31-IS was synthesized with an additional glycine on each PIE12-2 monomer (three in total), increasing the molecular mass by 171.1 Da. Plasma samples (200 μl) were spiked with CPT31-IS to a concentration of either 60 or 150 nM, then precipitated in 2% NH4OH in acetonitrile (500 μl). Following centrifugation, the supernatant was applied to a strong anion exchange solid-phase extraction 96-well plate (SOLAμ SAX, 2 mg/ml 96-well plate). The anion exchange plate was first conditioned with 400 μl of 2% NH4OH in methanol, followed by 400 μl of 2% NH4OH in water. The precipitated supernatant (500 μl) was then loaded into each well, followed by washing with 500 μl of 2% NH4OH in water, then 500 μl of methanol. Sample was eluted using two 50 μl aliquots of 2% formic acid in methanol.
LC-MS analysis was conducted using an Agilent Infinity 1290 HPLC system paired to an Agilent 6450A Q-TOF mass spectrometer equipped with a Dual Jet Spray ESI source. […] Samples were analyzed against a standard curve of CPT31 from 5.00-2,000 nM.

The next data set has as its target HSA (Homo sapiens, UniProt P02768). The note with it: cited from earlier work.
The conditions of data set [6]: humans; cited from earlier work.
Where [7] appears, read: rats, SC, 1.0 mg/kg, plasma, median, updated protocols.
Setting [8] is: rat, in vivo, IV, 1.0 mg/kg, plasma, median.
[9] abbreviates: rat, in vivo, SC, 1.0 mg/kg, plasma, median.
Setting [10] is: rats, IV, 1.0 mg/kg, plasma, median, updated protocols.

Chain of HSA (P02768 25-609): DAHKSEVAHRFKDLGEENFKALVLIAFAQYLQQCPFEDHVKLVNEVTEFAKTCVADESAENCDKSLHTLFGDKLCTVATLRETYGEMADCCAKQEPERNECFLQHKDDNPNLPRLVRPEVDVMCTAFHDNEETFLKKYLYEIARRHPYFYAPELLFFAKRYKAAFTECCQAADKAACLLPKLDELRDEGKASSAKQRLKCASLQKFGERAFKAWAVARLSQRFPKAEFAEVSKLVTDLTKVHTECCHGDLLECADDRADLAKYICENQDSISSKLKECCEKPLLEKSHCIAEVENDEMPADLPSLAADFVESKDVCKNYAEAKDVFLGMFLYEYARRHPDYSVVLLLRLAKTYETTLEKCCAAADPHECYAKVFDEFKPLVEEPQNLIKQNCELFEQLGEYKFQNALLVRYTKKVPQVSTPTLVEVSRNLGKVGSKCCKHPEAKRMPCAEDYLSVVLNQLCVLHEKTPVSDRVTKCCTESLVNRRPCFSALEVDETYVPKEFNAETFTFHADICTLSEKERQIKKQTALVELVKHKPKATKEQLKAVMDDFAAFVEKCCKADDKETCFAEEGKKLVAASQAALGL

The solubility is the concentration that dissolves in the medium under given conditions. Higher therefore signals much dissolved substance. Usually bioavailability stands for the share of a dose that reaches the circulation, judged against a reference dose that is usually intravenous. Read a high bioavailability as good availability. In general, AUC(0-inf) refers to the area under the concentration-time curve extrapolated to infinity. Read a high AUC(0-inf) as high exposure. What is called Cmax is the maximum level reached in the sampled fluid or tissue. As usually defined, the Tmax is the time from dosing to the highest level. In turn, `CC(=O)N[C@H](Cc1c[nH]cn1)C(=O)N1CCC[C@@H]1C(=O)N[C@@H]1CSSC[C@H](C(=O)N[C@H](CCC(=O)O)C(=O)N[C@H](CC(C)C)C(=O)NCC(=O)N[C@H](CCCCNC(=O)CCOCCOCCOCCOCCNC(=O)CCOCC(COCCC(=O)NCCOCCOCCOCCOCCC(=O)NCCCC[C@@H](NC(=O)CNC(=O)[C@@H](CC(C)C)NC(=O)[C@@H](CCC(=O)O)NC(=O)[C@H]2CSSC[C@@H](NC(=O)[C@H]3CCCN3C(=O)[C@@H](Cc3c[nH]cn3)NC(C)=O)C(=O)N[C@H](CC(=O)O)C(=O)N[C@H](Cc3ccc(O)cc3)C(=O)N3CCC[C@@H]3C(=O)N[C@H](CCC(=O)O)C(=O)N[C@H](Cc3c[nH]c4ccccc34)C(=O)N[C@H](CCC(N)=O)C(=O)N[C@H](Cc3c[nH]c4ccccc34)C(=O)N[C@H](CC(C)C)C(=O)N2)C(N)=O)(COCCC(=O)NCCOCCOCCOCCOCCC(=O)NCCCC[C@@H](NC(=O)CNC(=O)[C@@H](CC(C)C)NC(=O)[C@@H](CCC(=O)O)NC(=O)[C@H]2CSSC[C@@H](NC(=O)[C@H]3CCCN3C(=O)[C@@H](Cc3c[nH]cn3)NC(C)=O)C(=O)N[C@H](CC(=O)O)C(=O)N[C@H](Cc3ccc(O)cc3)C(=O)N3CCC[C@@H]3C(=O)N[C@H](CCC(=O)O)C(=O)N[C@H](Cc3c[nH]c4ccccc34)C(=O)N[C@H](CCC(N)=O)C(=O)N[C@H](Cc3c[nH]c4ccccc34)C(=O)N[C@H](CC(C)C)C(=O)N2)C(N)=O)NC(=O)CCOCCOCCOCCOCCOCCOCCOCCOCCOCCOCCOCCOCCOCCOCCOCCOCCOCCOCCOCCOCCOCCOCCOCCOCCNC(=O)CCN2C(=O)CC(S[C@H]3CC[C@@]4(C)C(=CC[C@H]5[C@@H]6CC[C@H]([C@H](C)CCCC(C)C)[C@@]6(C)CC[C@@H]54)C3)C2=O)C(N)=O)NC(=O)[C@@H](CC(C)C)NC(=O)[C@@H](Cc2c[nH]c3ccccc23)NC(=O)[C@@H](CCC(N)=O)NC(=O)[C@@H](Cc2c[nH]c3ccccc23)NC(=O)[C@@H](CCC(=O)O)NC(=O)[C@H]2CCCN2C(=O)[C@@H](Cc2ccc(O)cc2)NC(=O)[C@@H](CC(=O)O)NC1=O` (some centres unmarked) [CPT24] returned a solubility in data set [1] of around 40 mg/mL (≈ 4.53 mM). Further, the bioavailability in data set [2] (rat, in vivo, sc, 1 mg/kg) was 51.4%; in data set [3] (Sprague Dawley, rat, SC, 1.0 mg/kg, plasma, median), 73%. The area under the curve AUC(0-inf) in data set [2] (rat, in vivo, iv, 1 mg/kg) was 4660 nM·h; in data set [2] (rat, in vivo, sc, 1 mg/kg), 2390 nM·h; in data set [3] (setting [8]) it was 2390 nM·h; in data set [3] (setting [9]), 1750 nM·h. In addition, the C0 in data set [2] (rat, in vivo, iv, 1 mg/kg) came to 4.53 µM; in data set [3] (setting [8]), 1.11 µM. Moreover, the Vd in data set [2] (rat, in vivo, iv, 1 mg/kg) was found to be 0.057 L/kg; in data set [3] (rat, in vivo, IV, 1.0 mg/kg, plasma, median, read-out: Vz (obs)), 0.13 L/kg. Further, the half-life in data set [2] (rat, in vivo, iv, 1 mg/kg) is 1.62 h; in data set [2] (rat, in vivo, sc), 3.8 h; in data set [2] (rat, in vivo, sc, 1 mg/kg), 3.88 h; in data set [3] (rat, in vivo, IV, 1.0 mg/kg, plasma, median, read-out: T1/2 (converted)), 1.77 h; in data set [3] (rat, in vivo, IV, read-out: IV half-life (converted)) it was 1.8 h; in data set [3] (rat, in vivo, SC, 1.0 mg/kg, plasma, median, read-out: T1/2 (converted)), 2.71 h. Moreover, in data set [3] (rat, in vivo, SC, read-out: SC half-life (converted)), the half-life was 2.7 h. The Cmax in data set [2] (rat, in vivo, sc, 1 mg/kg) was found to be 0.395 µM; in data set [3] (setting [9]) it was 0.304 µM. For the same compound, the Tmax in data set [2] (rat, in vivo, sc, 1 mg/kg) is 2 h; in data set [3] (setting [9]) it was 4 h. Moreover, the F in data set [2] (setting [7]) amounted to 51%. In addition, the clearance in data set [3] (rat, in vivo, IV, 1.0 mg/kg, plasma, median, read-out: Cl (obs) (converted)) is 0.047 L/h/kg. In addition, in data set [3] (IV), the “increase of IV half-life vs PIE12-trimer” value was above 3 fold. Further, in data set [3] (IV), the “reduction of clearance vs PIE12-trimer” value is reported as around 18 fold. In addition, the “extension of SC (apparent) half-life vs PIE12-trimer” value in data set [3] (SC, terminal phase elimination) is above 3 fold.

As for “CPT24-5kD: includes 5 kDa of linear polydisperse PEG between PIE12-trimer and thiocholesterol”, the “antiviral potency, in words” value in data set [4] was “comparable to CPT24”. Moreover, the “prolonged half-life compared to CPT24” value in data set [2] (rats, IV) came to 3.5 fold. Also, in data set [2] (setting [10]), the “AUC(0-inf)” value stood at 4578 nM·h, the C0 was 1.1 µM, the “Cl (obs)” value is 0.0146 L/h/kg and the T1/2 is 5.62 h. The “Vz (obs)” value in data set [2] (setting [10]) turned out to be 0.118 L/kg. The “prolonged half-life compared to CPT24” value in data set [2] (rats, SC) was 1.8 fold. Moreover, in data set [2] (setting [7]), the “AUC(0-inf)” value is 1557 nM·h, the Cmax amounted to 0.089 µM and the T1/2 was 7.21 h.

“I: Ac-[dH][dP][dC][dD][dY][dP][dE][dW][dQ][dW][dL][dC][dE][dL]G[PEG4][dK]-NH2 / II: Ac-[dH][dP][dC][dD][dY][dP][dE][dW][dQ][dW][dL][dC][dE][dL]G[PEG4][dK]-NH2 / III: Ac-[dH][dP][dC][dD][dY][dP][dE][dW][dQ][dW][dL][dC][dE][dL]G[PEG4][dK]-NH2 (disulfide I:3-I:12, II:3-II:12, III:3-III:12; linker I:17-II:17-III:17 via X1) [CPT31]”: the half-life in data set [5] (cynomolgus monkey, in vivo, non-human primates, SC, read-out: subcutaneous half-life (converted)) was 18 h; in data set [2] (rat, in vivo, iv, 1 mg/kg) it was 3.25 h; in data set [2] (rat, in vivo, sc), 5.4 h. Further, the bioavailability was determined as 80.4% in data set [5] (cynomolgus monkey, male cynomolgus monkeys, SC, 3.0 mg/kg, plasma, median) and 55% in data set [2] (rat, in vivo, sc, 1 mg/kg). Moreover, the adverse events entry in data set [5] (cynomolgus monkeys, IV 1 mg/kg then SC 3 mg/kg) is recorded as “no adverse events were observed”. The same compound registered a solubility in data set [1] of around 40 mg/mL.

Regarding enfuvirtide, the “HSA binding, in words” value on HSA is listed as “highly HSA bound”. Moreover, the “volume of distribution, in words” value in data set [6] was “reduced volume of distribution”.
